The results in this text go back to US20230002480A1.

Holding throughout (experiment): cell-based or functional assay
Assay [1] addresses HIV-1 Env of pseudovirus CNE8 (clade CRF01_AE) (HIV-1).
Assay [2] addresses HIV-1 Env of pseudovirus 620345.c01 (clade CRF01_AE) (HIV-1).
Assay [3] has as its target HIV-1 Env of pseudovirus MS208A1 (HIV-1).
Assay [4] deals with HIV-1 Env of pseudovirus AC10.0.29 (clade B) (HIV-1).
In assay [5] the target is HIV-1 Env of pseudovirus ZM109F.PB4 (clade C) (HIV-1).
Assay [6] concerns the target HIV-1 Env of pseudovirus CAP210.2.00.E8 (clade C) (HIV-1).
Assay [7] has as its target MuLV pseudovirus (Neg. Control) (MuLV).
The target of assay [8] is HIV-1 Env pseudovirus CNE5 (HIV-1).
The target of assay [9] is HIV-1 Env of pseudovirus 1394C9G1 (Rev-) (HIV-1).

Where only a bound is given, the exact number is not on record here.

Turning to 10-1074 (antibody), the IC50, titer in TZM.bl cells in assay [1] and in assay [2] was greater than 50 µg/mL in each case. Besides, the IC80, titer in TZM.bl cells in assay [1] and in assay [2] was greater than 50 µg/mL in each case.
As for 10E8 (antibody), in assay [2], the IC50, titer in TZM.bl cells turned out to be 0.455 µg/mL and the IC80, titer in TZM.bl cells amounted to 6 µg/mL.
In [3], N49P7 (antibody) gave a neutralization IC50 of 0.12 µg/mL, a neutralization IC80 of 0.479 µg/mL and a neutralization MPI of 100.
The corresponding values for N49P7.1 (antibody) are 0.12 µg/mL, 0.431 µg/mL and 100.
N49P7.2 (antibody): in [4], the IC50 (in general, the concentration that gives 50% inhibition) came to 44.2 µg/mL; the IC80 (usually the concentration at which the effect reaches the 80% level) was greater than 50 µg/mL; the MPI is 53. For the same substance, in assay [5], the IC50 was 0.065 µg/mL, the IC80 turned out to be 0.321 µg/mL and the MPI amounted to 99. In [6], this substance came in with an IC50 of 3.94 µg/mL, an IC80 of 21.7 µg/mL and an MPI of 95.
On to N49P9 (antibody), for which, in [7], the IC50 was greater than 50 µg/mL, the IC80 was greater than 50 µg/mL and the MPI is 13.
In [8], N49P9.1 (antibody) registered an IC50 of 0.183 µg/mL, an IC80 of 0.641 µg/mL and an MPI of 100.
Take N49P11 (antibody): in [4], the IC50 stood at 5.52 µg/mL, the IC80 is 20 µg/mL and the MPI came out at 100. In assay [5], this substance came in with an IC50 of 5.2 µg/mL, an IC80 of 19.4 µg/mL and an MPI of 100. In assay [6], this substance showed an IC50 of 5.12 µg/mL, an IC80 of 19.4 µg/mL and an MPI of 100.
Consider N49P18.1 (antibody), for which the values for the IC50 in [4], in assay [5] and in assay [6] were 20 µg/mL, 26.6 µg/mL and greater than 50 µg/mL, respectively. In addition, the IC80 in assay [4], in [5] and in assay [6] was greater than 50 µg/mL in each case. For the same substance, the figures for the MPI in assay [4], in assay [5] and in assay [6] were 71, 69 and 11, respectively.
In [8], N49P19 (antibody) registered an IC50 of 0.748 µg/mL, an IC80 of 3.29 µg/mL and an MPI of 100. Also, in [7], the IC50 is greater than 50 µg/mL, the IC80 is greater than 50 µg/mL and the MPI came out at 0.
As for PG9 (antibody), in [2], the IC50, titer in TZM.bl cells stood at 1.33 µg/mL and the IC80, titer in TZM.bl cells was greater than 50 µg/mL.
On the same counts, the results for PG16 (antibody) are greater than 50 µg/mL and greater than 50 µg/mL.
Turning to VRC01 (antibody), in assay [9], the IC50, titer in TZM.bl cells is 0.36 µg/mL and the IC80, titer in TZM.bl cells stood at 1.28 µg/mL.
